Experiment [1] deals with T1, recombinant human MERTK (human, UniProt Q12866 21-505, limits assumed).
T1 construct: Analyte in solution in biolayer interferometry; also called hMer
T1 sequence: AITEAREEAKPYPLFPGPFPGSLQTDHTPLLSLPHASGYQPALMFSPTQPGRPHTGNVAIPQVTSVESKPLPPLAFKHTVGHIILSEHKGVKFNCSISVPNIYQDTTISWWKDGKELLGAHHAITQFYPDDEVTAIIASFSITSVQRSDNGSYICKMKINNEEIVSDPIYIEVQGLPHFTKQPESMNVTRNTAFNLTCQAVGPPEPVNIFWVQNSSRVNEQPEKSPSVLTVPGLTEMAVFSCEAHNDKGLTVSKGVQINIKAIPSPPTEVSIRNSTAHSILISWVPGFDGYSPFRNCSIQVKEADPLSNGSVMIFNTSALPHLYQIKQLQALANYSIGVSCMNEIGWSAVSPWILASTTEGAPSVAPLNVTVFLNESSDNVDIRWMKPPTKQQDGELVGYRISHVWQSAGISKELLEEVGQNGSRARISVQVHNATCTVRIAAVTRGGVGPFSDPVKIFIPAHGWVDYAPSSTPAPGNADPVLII
Kind of experiment: biolayer interferometry, M6 loaded on AMQ sensor at 1 ug/mL, hMer in solution at 5 nM, local 1:1 fit. The method, then:
(§1) FIG. 11: M6 binds to MERTK with high affinity. M6 binds to human MERTK with high affinity. A diagram showing antibody binding kinetics for M6 (Mer-M6) against human MERTK (hMer) using biolayer interferometry. Purified M6 was loaded on an AMQ sensor at a concentration of 1 microgram/mL to test binding against analytes in solution. All analytes were prepared at 5 nM with a 2-fold dilution series for a total of 7 concentrations. Kinetic fits were calculated using a 1:1 model, with Local fits for each concentration as well as an overall Global fit.

In experiment [2] the target is T1, recombinant human MERTK. Kind of experiment: biolayer interferometry, M6 loaded on AMQ sensor, hMer analyte from 5 nM in 2-fold dilutions, 1:1 model, global fit. The method, then: as §1
In general terms: BLI is a label-free optical method that tracks binding on a fibre tip over time.

In experiment [3] the target is T1, recombinant human MERTK. Kind of experiment: biolayer interferometry, M6 loaded on AMQ sensor at 1 ug/mL, hMer in solution at 2.5 nM, local 1:1 fit. How it is done: as §1
Experiment [4] concerns the target T1, recombinant human MERTK. Kind of experiment: biolayer interferometry, M6 loaded on AMQ sensor at 1 ug/mL, hMer in solution at 1.25 nM, local 1:1 fit. The method, then: as §1
In experiment [5] the target is T1, recombinant human MERTK. Kind of experiment: biolayer interferometry, M6 loaded on AMQ sensor at 1 ug/mL, hMer in solution at 0.625 nM, local 1:1 fit. The method, then:
as §1

The target in experiment [6] is T1, recombinant human MERTK. Kind of experiment: biolayer interferometry, M6 loaded on AMQ sensor at 1 ug/mL, hMer in solution at 0.0781 nM, local 1:1 fit. The method, then: as §1
Experiment [7] deals with T1, recombinant human MERTK. Kind of experiment: biolayer interferometry, M6 loaded on AMQ sensor at 1 ug/mL, hMer in solution at 0.1563 nM, local 1:1 fit. The method, then:
as §1

Experiment [8] deals with T1, recombinant human MERTK. Kind of experiment: biolayer interferometry, M6 loaded on AMQ sensor at 1 ug/mL, hMer in solution at 0.3125 nM, local 1:1 fit. How it is done:
as §1

The target in experiment [9] is T1, recombinant human MERTK. Kind of experiment: biolayer interferometry, M6 loaded on AMQ sensor at 1 ug/mL, hMer in solution at 5 to 0.0781 nM, global 1:1 fit. The method, then: as §1

B1: monoclonal antibody M6 (antibody, V domains shown)
VH: QVKLEESGPELKKPGETVKISCKASGYTFTNYGMNWVKQAPGKGLKWMGWINTYTGEPTYADDFKGRFVFSLETSASTAYLQINNLKNEDMATYFCARKSTVVSRYFDVWGAGTTVTVSS
VL: DIVLTQTHKFMSTSVGDRVSITCKASQDVGDAVTWCQQKPGQPPKLLIYWASTRHTGVPDRFTGSGSGTDFTLTINNVQSEDLADYFCQQYRSYPLTFGAGTKLELKR
notes: Mouse hybridoma monoclonal antibody; Hybridoma supernatant was used in the ELISA screen, purified antibody in biolayer interferometry; also called Mer-M6
The term Kd denotes a measure of binding affinity in units of concentration. Usually koff stands for the first-order rate constant of dissociation. The term kon denotes the second-order rate constant of association. On to B1, for which the Kd with recombinant human MERTK [1] turned out to be 0.634 pM; with recombinant human MERTK [2], 4.6 pM; in the experiment with recombinant human MERTK [3] it was 2.09 pM; with recombinant human MERTK [4], 49.8 pM; with recombinant human MERTK [5], 0.0131 pM; in the experiment with recombinant human MERTK [6] it was 0.823 pM. Also, the values for the Kd with recombinant human MERTK [7] and with recombinant human MERTK [8] were 0.0652 pM and 0.00312 pM, respectively. Moreover, the dissociation rate constant (koff) worked out at 1.5e-06 s⁻¹ with recombinant human MERTK [1]; 4.46e-06 s⁻¹ in the experiment with recombinant human MERTK [3]; 0.000156 s⁻¹ in the experiment with recombinant human MERTK [4]; 7.27e-08 s⁻¹ with recombinant human MERTK [5]; 2.49e-05 s⁻¹ in the experiment with recombinant human MERTK [6]; 9.22e-07 s⁻¹ with recombinant human MERTK [7]. Also, the koff in the experiment with recombinant human MERTK [8] is 3.3e-08 s⁻¹; in the experiment with recombinant human MERTK [9], 9.55e-06 s⁻¹. The kon was determined as 2.37e+06 M⁻¹ s⁻¹ in the experiment with recombinant human MERTK [1]; 2.13e+06 M⁻¹ s⁻¹ in the experiment with recombinant human MERTK [3]; 3.12e+06 M⁻¹ s⁻¹ with recombinant human MERTK [4]; 5.57e+06 M⁻¹ s⁻¹ in the experiment with recombinant human MERTK [5]; 3.03e+07 M⁻¹ s⁻¹ in the experiment with recombinant human MERTK [6]; 1.41e+07 M⁻¹ s⁻¹ with recombinant human MERTK [7]. Besides, the values for the kon in the experiment with recombinant human MERTK [8] and with recombinant human MERTK [9] were 1.06e+07 M⁻¹ s⁻¹ and 2.07e+06 M⁻¹ s⁻¹, respectively.

These data come from patent US20200255543A1 (ROCKEFELLER UNIVERSITY, published 2020).
